Experimental data as given in patent publication US20040266665A1.

Columns and labels:
[1] = target: human thyroid stimulating hormone receptor (TSHR) (human) (UniProt P16473); experiment: cell-based or functional assay
[2] = target: human thyroid stimulating hormone receptor (TSHR) (human) (UniProt P16473); experiment: receptor binding affinity; assay and reference not described (reference presumably wild type hTSH)

Substance | Vmax of cyclic AMP production in CHO-JP09 cells, compared to wild type TSH [1] [fold] | in vitro activity (cyclic AMP production in CHO-JP09 cells) over that of the α4K/wild type β heterodimer [1] [fold] | potency in stimulation of cyclic AMP production in CHO-JP09 cells, compared to wild type TSH [1] [fold] | fold increase in binding affinity [2] [fold] | hormone potency [1] [fold]
mutant TSH heterodimer comprising the α4K subunit (αQ13K+αE14K+αP16K+αQ20K) and a fusion protein of the TSH β subunit and the CTEP of hCG (from UniProt P0DN86 134-165) (ligand) | 1.5 | 3 to 4 | 200 |  | 
α4K/β3R hTSH analog (heterodimer of α4K mutant α subunit and β3R mutant TSH β subunit) (from UniProt P01215 25-116; P01222 21-132) (ligand) |  |  |  | < 50000 | < 1300
